Experimental data published in patent publication US20050282752A1.

How the values were obtained:
[1] = target: biotinylated human IL-1RI (human) (UniProt P14778); assay: IGEN (ECL) competition, inhibition of IL-1 signaling complex formation; conditions: ligand
[2] = target: biotinylated human IL-1RI (human) (UniProt P14778); assay: IGEN (ECL) competition, inhibition of IL-1 signaling complex formation; concentrated stock; conditions: ligand

biotinylated human IL-1RI (human), sequence (P14778 18-336): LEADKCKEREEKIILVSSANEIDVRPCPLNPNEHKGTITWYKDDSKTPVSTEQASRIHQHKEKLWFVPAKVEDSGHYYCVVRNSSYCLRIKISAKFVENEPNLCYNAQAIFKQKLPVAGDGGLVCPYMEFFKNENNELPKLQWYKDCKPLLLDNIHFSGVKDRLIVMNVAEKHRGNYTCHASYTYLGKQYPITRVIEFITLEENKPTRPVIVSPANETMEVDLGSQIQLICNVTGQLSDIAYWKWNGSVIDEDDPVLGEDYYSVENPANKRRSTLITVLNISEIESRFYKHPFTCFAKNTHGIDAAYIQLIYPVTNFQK

EC50 [1]: 0.562 nM
EC50 [2]: 0.873 nM
Substance: IL-1ra K93A mutant protein (from UniProt P18510 26-177)
